{"source": "patent US20230183379A1", "about": "(published 2023)", "binders": {"B1": {"name": "F12-IgG1 (IgG1 anti-TfR1 F12 antibody) (antibody, V domains shown)", "VH": "QVQLQESGGGLVQPGGSLRLSCAASGFSFNTYTMHWVRQAPGKGLEWVADIAYDGSTKYYADSVKGRFTISRDNAKNSLYLQMNSLRAEDTAVYYCARDAVAGEGYFDLWGRGTLVTVSS", "VL": "QSALTQDPAVSVALGQTVRITCQGDSLRSYYASWYQQLPGTAPKLLIYRNNQRPSGVPDRFSGSKSGTSASLAISGLRSEDEADYYCAAWDDSLSAWVFGGGTKLTVLG"}}, "target": "transferrin receptor 1 (TfR1), human (human, UniProt P02786 1-760)", "sequence (P02786 whole entry)": "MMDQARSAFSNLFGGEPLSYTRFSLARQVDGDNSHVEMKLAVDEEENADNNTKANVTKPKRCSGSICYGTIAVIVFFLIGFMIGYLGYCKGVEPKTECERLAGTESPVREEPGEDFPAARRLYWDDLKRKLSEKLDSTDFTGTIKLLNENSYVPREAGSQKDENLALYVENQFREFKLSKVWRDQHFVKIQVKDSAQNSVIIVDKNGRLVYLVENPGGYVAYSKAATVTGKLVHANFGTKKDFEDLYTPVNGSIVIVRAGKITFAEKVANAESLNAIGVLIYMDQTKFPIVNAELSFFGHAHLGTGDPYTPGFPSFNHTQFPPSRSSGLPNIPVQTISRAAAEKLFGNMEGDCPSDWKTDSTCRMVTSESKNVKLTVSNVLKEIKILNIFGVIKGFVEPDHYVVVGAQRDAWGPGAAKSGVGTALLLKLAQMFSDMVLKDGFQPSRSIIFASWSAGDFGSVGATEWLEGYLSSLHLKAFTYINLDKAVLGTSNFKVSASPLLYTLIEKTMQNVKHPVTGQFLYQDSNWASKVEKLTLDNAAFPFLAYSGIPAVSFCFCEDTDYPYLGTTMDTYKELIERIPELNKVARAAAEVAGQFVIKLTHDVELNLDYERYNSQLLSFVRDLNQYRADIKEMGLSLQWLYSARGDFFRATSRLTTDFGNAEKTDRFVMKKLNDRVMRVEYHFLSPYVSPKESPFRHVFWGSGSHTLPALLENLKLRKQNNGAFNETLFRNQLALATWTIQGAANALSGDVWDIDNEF", "assay": "FACS binding, Raji cells, 4 °C"}
{"binder": "B1", "values": [{"measurement": "EC50", "value": 1.13, "unit": "nM"}]}
